The target of assay [1] is T1, FOLR2 on HEK293-6e cells (human, UniProt P14207 17-230).
T1 construct: whole, on cells; also called human folate receptor beta (FOLR2)
Nature of the assay: flow cytometry on transfected HEK293-6e cells. How it is done: (§1) FRα, FOLR2 and FOLR4 binding was assessed through flow cytometry using HEK293 transfected cells. FOLR3 binding was assessed through ELISA as FOLR3 is a soluble protein. Control anti-FOLR2 (mouse anti-human FOLR2; Nordic BioSite AB, Taby, Sweden; Cat. No. AFC-4544-2), anti-FOLR3 (mouse anti-human FOLR3; LS Bio, Seattle, WA; Cat. No. LS-C125621) and anti-FOLR4 (mouse anti-His DyLight™ 650; Novus Biologicals, Littleton, CO; Cat. No. NBP2-31055C) antibodies were included in these experiments.
(§2) FRα, FOLR2 and FOLR4 binding: Briefly, HEK293-6e cells were transfected for ˜24 hours to transiently express human FRα (Cat. No. 13420), FOLR2 (Cat. No. 13481) and FOLR4 (Cat. No. 13483) (all from GenScript Biotech, Piscataway, NJ), 1 ug DNA per 1 million cells. Following transfection, 50,000 cells were seeded in V-bottom 96-well plates and incubated with 50 nM primary antibody for 45 min under standard culturing conditions. […] Following incubation and washing, fluorescence was detected by flow cytometry on a BD LSRFortessa™ Cell Analyzer (BD Biosciences, Franklin Lake, NJ) with 1,000 minimum events collected per well.

Assay [2] deals with T2, FOLR4 on HEK293-6e cells (human, UniProt A6ND01 20-228).
T2 construct: whole, on cells; also called human folate receptor delta (FOLR4)
Briefly: flow cytometry on transfected HEK293-6e cells. The protocol:
as §1, §2

The target of assay [3] is T3, human FRα on cells (human, UniProt P15328 25-234).
T3 construct: Transiently expressed on HEK293-6e, CHO-S or HEK293 microarray cells, or endogenous on JEG-3, HEC-1-A, IGROV-1, OVCAR-3, H2110, KB-HeLa and T-47D cells; also called human folate receptor alpha; FOLR1
Briefly: apparent Kd, flow cytometry on HEC-1-A cells (endogenous FRα), 24 h at 4°C. How it is done: Briefly, cells were seeded at 50,000 cells/well in V-bottom 96-well plates and treated with antibody for 24 hours at 4° C. to prevent internalization. […] Following incubation and washing, fluorescence was detected by flow cytometry on a BD LSRFortessa™ Cell Analyzer (BD Biosciences, Franklin Lake, NJ) with 1,000 minimum events collected per well. AF647/APC-A GeoMean (fluorescence signal geometric mean, proportional to anti-Human AF647 binding) in live cell population was plotted using GraphPad Prism Version 9 (GraphPad Software, San Diego, CA).

Assay [4] concerns the target T4, recombinant His-tagged human FRα (ACROBiosystems) (human, UniProt P15328 25-233).
T4 construct: also called hFRα; hFRα antigen; not shown: His tag
Briefly: SPR (Biacore T200): hFRα amine-coupled to CM5 chip at medium antigen density, bivalent FSA injected, 1:1 Langmuir fit, mean of n=2. How it is done:
CM5 Series S sensor chip, Biacore™ amine coupling kit (NHS, EDC and 1 M ethanolamine), and 10 mM sodium acetate buffers were purchased from GE Healthcare Life Science (Mississauga, ON, Canada). PBS running buffer with 0.05% Tween20 (PBST) was purchased from Teknova Inc. (Hollister, CA). Recombinant human FRα was purchased from ACRObiosystems (Newark, DE).
Screening of the variants for binding to hFRα antigen was conducted in two steps: capture of hFRα onto surface, followed by injection of three to five concentrations of variant. The hFRα surface was prepared on a CM5 Series S sensor chip by standard amine coupling methods as described by the manufacturer (GE Healthcare Life Science, Mississauga, ON, Canada). The immobilization of the hFRα was performed using Biacore™ T200 immobilization wizard with an amine coupling method aiming for resonance units (RUs) ranging from 5 to 200 RUs. Using multi-cycle kinetics, three to five concentrations of a two-fold dilution series of samples starting at 300 nM with a blank buffer control were injected at 50 uL/min for 180s with a 600s dissociation phase, resulting in a set of sensorgrams with a buffer blank reference. The hFRα surface was regenerated to prepare for the next injection cycle by one pulse of 10 mM glycine/HCl pH 1.5 for 30s at 30 uL/min. Blank-subtracted sensorgrams were analyzed using Biacore™ T200 Evaluation Software v3.0. The blank-subtracted sensorgrams were then fit to the 1:1 Langmuir binding model.

Assay [5] concerns the target T5, cynomolgus monkey FRα on cells (cynomolgus monkey, UniProt P15328 29-234 (human entry)).
T5 construct: Transiently expressed on CHO-S cells; also called Cyno FRα; cynomolgus FRα
Briefly: apparent Kd, flow cytometry, CHO-S cells transiently expressing cynomolgus monkey FRα, 24 h at 4°C. The protocol: (§3) Briefly, CHO-S cells were transfected for −24 hours to transiently express human or cynomolgus monkey FRα, 1 ug DNA per 1 million cells. Following transfection, cells were seeded at 50,000 cells/well in V-bottom 96-well plates and treated with antibody for 24 hours at 4° C. to prevent internalization. […] Following incubation and washing, fluorescence was detected by flow cytometry on a BD LSRFortessa™ Cell Analyzer (BD Biosciences, Franklin Lake, NJ).

The target of assay [6] is T1, FOLR2 on HEK293-6e cells. Briefly: flow cytometry, HEK293-6e cells transiently expressing the target, 50 nM antibody. The protocol:
as §2
(§4) By flow cytometry, live singlet cell population was gated using FlowJo™ v8 software (RD Biosciences, Franklin Lake, NJ), and AF647 GeoMean and % positive binding was determined in this population for each antibody.

Assay [7] deals with T2, FOLR4 on HEK293-6e cells. Described as above. The protocol:
as §2, §4

The target of assay [8] is T3, human FRα on cells. Described as above. How it is done: as §2, §4
The target of assay [9] is T5, cynomolgus monkey FRα on cells. Briefly: apparent Kd, flow cytometry, CHO-S cells transiently expressing cynomolgus monkey FRα (same experiment as Table 15.1, more digits). The protocol:
as §3

T3 sequence (P15328 25-234 limits assumed): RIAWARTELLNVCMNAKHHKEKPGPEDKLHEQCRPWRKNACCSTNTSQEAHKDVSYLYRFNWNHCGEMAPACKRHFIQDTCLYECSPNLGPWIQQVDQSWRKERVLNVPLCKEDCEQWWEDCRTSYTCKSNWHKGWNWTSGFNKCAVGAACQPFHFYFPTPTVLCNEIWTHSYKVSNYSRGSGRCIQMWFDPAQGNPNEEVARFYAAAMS
T1 sequence (P14207 17-230): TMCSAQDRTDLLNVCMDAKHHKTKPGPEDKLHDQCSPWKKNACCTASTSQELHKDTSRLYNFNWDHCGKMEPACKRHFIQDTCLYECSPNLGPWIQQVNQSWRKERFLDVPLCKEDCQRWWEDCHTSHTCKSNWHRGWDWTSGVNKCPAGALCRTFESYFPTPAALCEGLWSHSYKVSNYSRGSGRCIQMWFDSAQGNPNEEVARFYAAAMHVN
T2 sequence (A6ND01 20-228): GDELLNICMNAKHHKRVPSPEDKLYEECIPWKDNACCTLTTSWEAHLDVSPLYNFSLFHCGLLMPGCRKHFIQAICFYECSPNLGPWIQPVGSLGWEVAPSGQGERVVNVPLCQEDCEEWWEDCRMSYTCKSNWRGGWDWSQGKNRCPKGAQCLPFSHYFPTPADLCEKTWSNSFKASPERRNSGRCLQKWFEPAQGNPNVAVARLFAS
T5 sequence (P15328 other isoform, or with tags, fused parts or gaps limits assumed): as the sequence (P15328 25-234 limits assumed) above, with I2T, A3T, W4R, R37K, A146P, H171Y counted along it
T4 sequence (P15328 25-233 limits assumed): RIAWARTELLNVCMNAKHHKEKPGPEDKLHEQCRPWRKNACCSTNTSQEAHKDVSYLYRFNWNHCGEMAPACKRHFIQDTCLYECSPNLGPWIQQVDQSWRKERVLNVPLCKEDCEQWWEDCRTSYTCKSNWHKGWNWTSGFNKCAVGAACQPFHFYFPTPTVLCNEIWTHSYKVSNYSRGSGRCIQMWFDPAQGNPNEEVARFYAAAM

B1: v23924 (antibody, human IgG1, kappa, V domains shown)
VH: QSVKESEGGLFKPTDTLTLTCTVSGFSLSSYGVSWVRQAPGNGLEWIGAVNSGGSAYYANWAKSRSTITRNTNLFTVTLKMTSLAVADTATYFCARSGSGYPMDYLAIWGPGTLVTVSS
VL: AYDMTQTPASVEVAVGGTVTIKCQASQSIGDWLAWYQQKPGQPPRLLIYEASTLASGVPSRFSGSGSGTQFTLTISGVECADAATYYCQQGYGRSNVDNIFGGGTEVVVKR
notes: Rabbit-human chimeric full-size antibody, human IgG1/kappa, HomoFc; also called variant v23924; parental chimeric anti-FRα antibody
In the case of B1, the binding result with FOLR2 on HEK293-6e cells [1] and in the assay with FOLR4 on HEK293-6e cells [2] was “no binding (tested: 50 nM)” throughout. The Kd with human FRα on cells [3] came out at 50 pM; in assay [4], 1370 pM; in [5], 120 pM; in [9] it was 122 pM. Besides, the “% Positive Binding, singlet population” value with FOLR2 on HEK293-6e cells [6] was determined as 0%; with FOLR4 on HEK293-6e cells [7], 0%; with human FRα on cells [8], 71%. The “AF647/DyLight650 GeoMean, singlet population” value in the assay with FOLR2 on HEK293-6e cells [6] is 7; with FOLR4 on HEK293-6e cells [7], 27; in the assay with human FRα on cells [8], 7660.

Source of the values: patent US20240424125A1 (Zymeworks, published 2024).
